These results are taken from article PMC2952866 (Nucleic Acids Research, 2010).

Sequences and labels used below:
T1: Mcm4 (Saccharomyces cerevisiae, UniProt P30665 1-933)
T1 sequence: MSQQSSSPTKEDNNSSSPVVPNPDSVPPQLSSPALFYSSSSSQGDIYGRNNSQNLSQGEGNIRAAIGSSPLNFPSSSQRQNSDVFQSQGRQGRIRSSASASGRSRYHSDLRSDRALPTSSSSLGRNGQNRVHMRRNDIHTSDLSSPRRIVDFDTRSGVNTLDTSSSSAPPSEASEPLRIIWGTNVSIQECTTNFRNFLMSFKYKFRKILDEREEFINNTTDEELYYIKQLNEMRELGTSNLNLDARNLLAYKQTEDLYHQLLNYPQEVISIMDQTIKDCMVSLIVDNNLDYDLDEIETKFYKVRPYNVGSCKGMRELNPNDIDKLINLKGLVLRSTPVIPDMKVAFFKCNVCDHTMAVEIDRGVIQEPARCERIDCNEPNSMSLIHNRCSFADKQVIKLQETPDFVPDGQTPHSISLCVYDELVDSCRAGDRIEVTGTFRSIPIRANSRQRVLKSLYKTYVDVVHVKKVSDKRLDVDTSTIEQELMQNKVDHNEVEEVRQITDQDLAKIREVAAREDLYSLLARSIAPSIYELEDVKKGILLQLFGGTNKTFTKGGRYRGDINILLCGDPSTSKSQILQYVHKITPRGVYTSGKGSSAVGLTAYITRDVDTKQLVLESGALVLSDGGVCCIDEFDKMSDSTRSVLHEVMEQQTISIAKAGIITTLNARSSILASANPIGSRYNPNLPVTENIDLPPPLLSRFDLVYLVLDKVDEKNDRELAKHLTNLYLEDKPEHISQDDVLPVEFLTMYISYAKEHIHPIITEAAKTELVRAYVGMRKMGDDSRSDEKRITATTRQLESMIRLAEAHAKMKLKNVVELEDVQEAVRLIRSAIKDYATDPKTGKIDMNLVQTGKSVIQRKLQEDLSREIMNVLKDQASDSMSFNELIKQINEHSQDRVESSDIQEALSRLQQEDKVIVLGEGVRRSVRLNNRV

T2: Mcm7 (Saccharomyces cerevisiae, UniProt P38132 1-845)
T2 sequence: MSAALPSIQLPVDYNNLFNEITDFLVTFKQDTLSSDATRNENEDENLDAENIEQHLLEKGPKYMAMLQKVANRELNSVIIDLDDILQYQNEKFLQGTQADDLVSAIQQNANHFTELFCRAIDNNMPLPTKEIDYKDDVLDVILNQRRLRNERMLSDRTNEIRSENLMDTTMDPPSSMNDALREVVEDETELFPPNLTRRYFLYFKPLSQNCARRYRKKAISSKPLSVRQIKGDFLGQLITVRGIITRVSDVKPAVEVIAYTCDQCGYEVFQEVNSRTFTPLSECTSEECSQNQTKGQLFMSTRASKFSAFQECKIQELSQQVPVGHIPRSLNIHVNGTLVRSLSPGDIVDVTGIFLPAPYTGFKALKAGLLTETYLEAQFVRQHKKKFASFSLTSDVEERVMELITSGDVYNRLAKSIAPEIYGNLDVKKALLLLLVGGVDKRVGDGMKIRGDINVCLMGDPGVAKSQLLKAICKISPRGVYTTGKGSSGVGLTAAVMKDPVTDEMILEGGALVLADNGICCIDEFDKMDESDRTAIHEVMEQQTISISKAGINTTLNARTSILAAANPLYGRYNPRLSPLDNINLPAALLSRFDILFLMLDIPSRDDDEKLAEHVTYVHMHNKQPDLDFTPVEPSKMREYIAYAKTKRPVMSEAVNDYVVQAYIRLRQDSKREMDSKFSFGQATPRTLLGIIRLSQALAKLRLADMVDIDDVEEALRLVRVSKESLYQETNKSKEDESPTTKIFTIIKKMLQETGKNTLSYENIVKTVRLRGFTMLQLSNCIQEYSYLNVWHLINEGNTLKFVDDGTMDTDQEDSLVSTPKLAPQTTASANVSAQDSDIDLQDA

B1: Mcm2 (natural protein)
chain: MSDNRRRRREEDDSDSENELPPSSPQQHFRGGMNPVSSPIGSPDMINPEGDDNEVDDVPDIDEVEEQMNEVDLMDDNMYEDYAADHNRDRYDPDQVDDREQQELSLSERRRIDAQLNERDRLLRNVAYIDDEDEEQEGAAQLDEMGLPVQRRRRRRQYEDLENSDDDLLSDMDIDPLREELTLESLSNVKANSYSEWITQPNVSRTIARELKSFLLEYTDETGRSVYGARIRTLGEMNSESLEVNYRHLAESKAILALFLAKCPEEMLKIFDLVAMEATELHYPDYARIHSEIHVRISDFPTIYSLRELRESNLSSLVRVTGVVTRRTGVFPQLKYVKFNCLKCGSILGPFFQDSNEEIRISFCTNCKSKGPFRVNGEKTVYRNYQRVTLQEAPGTVPPGRLPRHREVILLADLVDVSKPGEEVEVTGIYKNNYDGNLNAKNGFPVFATIIEANSIKRREGNTANEGEEGLDVFSWTEEEEREFRKISRDRGIIDKIISSMAPSIYGHRDIKTAVACSLFGGVPKNVNGKHSIRGDINVLLLGDPGTAKSQILKYVEKTAHRAVFATGQGASAVGLTASVRKDPITKEWTLEGGALVLADKGVCLIDEFDKMNDQDRTSIHEAMEQQSISISKAGIVTTLQARCSIIAAANPNGGRYNSTLPLAQNVSLTEPILSRFDILCVVRDLVDEEADERLATFVVDSHVRSHPENDEDREGEELKNNGESAIEQGEDEINEQLNARQRRLQRQRKKEEEISPIPQELLMKYIHYARTKIYPKLHQMDMDKVSRVYADLRRESISTGSFPITVRHLESILRIAESFAKMRLSEFVSSYDLDRAIKVVVDSFVDAQKVSVRRQLRRSFAIYTLGH
B2: Mcm5 (natural protein)
chain: MSFDRPEIYSAPVLQGESPNDDDNTEIIKSFKNFILEFRLDSQFIYRDQLRNNILVKNYSLTVNMEHLIGYNEDIYKKLSDEPSDIIPLFETAITQVAKRISILSRAQSANNNDKDPENTSMDTDSLLLNSLPTFQLILNSNANQIPLRDLDSEHVSKIVRLSGIIISTSVLSSRATYLSIMCRNCRHTTSITINNFNSITGNTVSLPRSCLSTIESESSMANESNIGDESTKKNCGPDPYIIIHESSKFIDQQFLKLQEIPELVPVGEMPRNLTMTCDRYLTNKVIPGTRVTIVGIYSIYNSKNGAGSGRSGGGNGGSGVAIRTPYIKILGIQSDVETSSIWNSVTMFTEEEEEEFLQLSRNPKLYEILTNSIAPSIFGNEDIKKAIVCLLMGGSKKILPDGMRLRGDINVLLLGDPGTAKSQLLKFVEKVSPIAVYTSGKGSSAAGLTASVQRDPMTREFYLEGGAMVLADGGVVCIDEFDKMRDEDRVAIHEAMEQQTISIAKAGITTVLNSRTSVLAAANPIYGRYDDLKSPGDNIDFQTTILSRFDMIFIVKDDHNEERDISIANHVINIHTGNANAMQNQQEENGSEISIEKMKRYITYCRLKCAPRLSPQAAEKLSSNFVTIRKQLLINELESTERSSIPITIRQLEAIIRITESLAKLELSPIAQERHVDEAIRLFQASTMDAASQDPIGGLNQASGTSLSEIRRFEQELKRRLPIGWSTSYQTLRREFVDTHRFSQLALDKALYALEKHETIQLRHQGQNIYRSGV
B3: Mcm3 (natural protein)
chain: MEGSTGFDGDATTFFAPDAVFGDRVRRFQEFLDTFTSYRDSVRSIQVYNSNNAANYNDDQDDADERDLLGDDDGDDLEKEKKAASSTSLNILPHRIIISLDDLREFDRSFWSGILVEPAYFIPPAEKALTDLADSMDDVPHPNASAVSSRHPWKLSFKGSFGAHALSPRTLTAQHLNKLVSVEGIVTKTSLVRPKLIRSVHYAAKTGRFHYRDYTDATTTLTTRIPTPAIYPTEDTEGNKLTTEYGYSTFIDHQRITVQEMPEMAPAGQLPRSIDVILDDDLVDKTKPGDRVNVVGVFKSLGAGGMNQSNSNTLIGFKTLILGNTVYPLHARSTGVAARQMLTDFDIRNINKLSKKKDIFDILSQSLAPSIYGHDHIKKAILLMLMGGVEKNLENGSHLRGDINILMVGDPSTAKSQLLRFVLNTASLAIATTGRGSSGVGLTAAVTTDRETGERRLEAGAMVLADRGVVCIDEFDKMTDVDRVAIHEVMEQQTVTIAKAGIHTTLNARCSVIAAANPVFGQYDVNRDPHQNIALPDSLLSRFDLLFVVTDDINEIRDRSISEHVLRTHRYLPPGYLEGEPVRERLNLSLAVGEDADINPEEHSNSGAGVENEGEDDEDHVFEKFNPLLQAGAKLAKNKGNYNGTEIPKLVTIPFLRKYVQYAKERVIPQLTQEAINVIVKNYTDLRNDDNTKKSPITARTLETLIRLATAHAKVRLSKTVNKVDAKVAANLLRFALLGEDIGNDIDEEESEYEEALSKRSPQKSPKKRQRVRQPASNSGSPIKSTPRRSTASSVNATPSSARRILRFQDDEQNAGEDDNDIMSPLPADEEAELQRRLQLGLRVSPRRREHLHAPEEGSSGPLTEVGTPRLPNVSSAGQDDEQQQSVISFDNVEPGTISTGRLSLISGIIARLMQTEIFEEESYPVASLFERINEELPEEEKFSAQEYLAGLKIMSDRNNLMVADDKVWRV

Holding throughout (assay): SEC + co-IP
Assay [1] concerns the target B3.
The target of assay [2] is T1, Mcm4.
Assay [3] has as its target Mcm6 (Saccharomyces cerevisiae, UniProt P53091 1-1017).
The target of assay [4] is T2, Mcm7.

Chain of Mcm6 (P53091 whole entry): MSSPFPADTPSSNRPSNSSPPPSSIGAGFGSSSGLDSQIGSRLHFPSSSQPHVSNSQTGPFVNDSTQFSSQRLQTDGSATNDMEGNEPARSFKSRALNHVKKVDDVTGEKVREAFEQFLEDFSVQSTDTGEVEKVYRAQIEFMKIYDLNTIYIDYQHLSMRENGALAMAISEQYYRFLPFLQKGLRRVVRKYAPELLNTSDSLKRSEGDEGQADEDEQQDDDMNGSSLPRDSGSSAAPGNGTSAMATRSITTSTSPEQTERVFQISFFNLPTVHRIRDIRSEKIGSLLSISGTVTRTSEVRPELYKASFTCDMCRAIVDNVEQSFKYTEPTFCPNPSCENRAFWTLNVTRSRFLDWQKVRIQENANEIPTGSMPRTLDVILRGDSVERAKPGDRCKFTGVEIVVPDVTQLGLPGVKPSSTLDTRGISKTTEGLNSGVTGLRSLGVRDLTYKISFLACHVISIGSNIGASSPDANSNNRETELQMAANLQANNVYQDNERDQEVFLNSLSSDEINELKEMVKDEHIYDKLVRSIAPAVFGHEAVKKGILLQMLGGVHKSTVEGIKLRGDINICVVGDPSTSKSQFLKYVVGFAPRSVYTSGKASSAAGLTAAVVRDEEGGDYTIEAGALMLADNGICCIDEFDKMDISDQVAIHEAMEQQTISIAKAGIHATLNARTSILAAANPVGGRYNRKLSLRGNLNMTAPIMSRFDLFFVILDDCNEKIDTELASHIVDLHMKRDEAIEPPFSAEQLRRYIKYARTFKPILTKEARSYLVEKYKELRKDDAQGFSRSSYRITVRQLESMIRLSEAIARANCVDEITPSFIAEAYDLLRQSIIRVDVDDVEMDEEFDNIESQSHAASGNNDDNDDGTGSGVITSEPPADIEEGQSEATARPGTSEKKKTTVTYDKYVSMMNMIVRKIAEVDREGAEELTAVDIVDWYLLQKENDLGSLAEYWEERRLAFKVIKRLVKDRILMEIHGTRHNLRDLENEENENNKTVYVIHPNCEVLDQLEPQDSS

With B1, the binding result in assay [1] and in assay [2] was “binds” in each case.
In the case of B2, the binding result in assay [3] and in assay [4] was “binds” throughout.
Turning to B3, in assay [3], the binding result was “binds”.
